Results taken from the supplement of paper PMC10567573.
± gives the standard deviation.

Test: protein stability index of a GFP-peptide fusion (GPS, HEK-293T) (PSI 1-6); higher = more stable
[1] = treatment: DMSO, c terminus: a fixed tail appended
[2] = treatment: MLN4924 1 uM, 8 h, c terminus: a fixed tail appended
[3] = treatment: DMSO, c terminus: native
[4] = treatment: MLN4924 1 uM, 8 h, c terminus: native
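Note: 24-mer peptide tiles fused after GFP, lentivirally expressed, FACS-sorted into six equal bins by GFP/DsRed ratio, decoded by Illumina sequencing, PSI is the read-weighted mean bin number.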

| Sequence | protein stability index [1] | protein stability index [2] | protein stability index [3] | protein stability index [4] |
| --- | --- | --- | --- | --- |
| RGYIKPHVDSIKFCGATIAGLSLL [ALKBH7] | 2.52 ± 0.41 | 2.39 ± 0.63 | – | – |
| RHFFTSWASCLQYDFDTQYAFVGD [WDFY1] | 2.37 ± 0.28 | 2.39 ± 0.17 | – | – |
| RICLGKFTFPGMSLDKRQGEGLRI [TPRG1] | 2.12 ± 0.19 | 2.08 ± 0.32 | – | – |
| RIHTGERPYMCKECGKAFSQNSSL [ZNF8] | 2.84 ± 0.39 | 3.2 ± 0.74 | – | – |
| RILQEKLDQPVSAPPSPRDISMEI [CCDC6] | 3.68 ± 0.33 | 3.87 ± 0.25 | – | – |
| RKDVCKSTHHGCEHICVNNGNSYI [MATN2] | 3.01 ± 0.32 | 3.07 ± 0.23 | – | – |
| RKYFADLAMNYKHGDPIPKVEFTE [TPH1] | 3.31 ± 0.32 | 3.3 ± 0.24 | – | – |
| RLRDAGFRVTLWVHPFVNYNSSRF [MYORG] | 2.61 ± 0.61 | 2.44 ± 0.15 | – | – |
| RLSKEWEDSKRWSKMDQLAKELTA [CHGA] | 3.18 ± 0.34 | 3.41 ± 0.66 | – | – |
| RLVVEFPATGGAIPSWQIRTVKLI [PKD2L1] | 2.62 ± 0.53 | 2.16 ± 0.36 | – | – |
| RMDKRTLALLVLAHSSDVLENVFS [GOLPH3L] | 2.37 ± 0.53 | 2.22 ± 0.23 | – | – |
| RMRLFGQRCQKCSWSQYEMPEFSS [RTP4] | 2.42 ± 0.52 | 2.2 ± 0.23 | – | – |
| RMVPALPPKRMLGADREFIEARRR [SNX8] | 3.96 ± 0.29 | 4.17 ± 0.18 | – | – |
| RMYPFQIHSIALSTFASLIGPFGG [CDS2] | 2.79 ± 0.33 | 2.61 ± 0.5 | – | – |
| RPHEVLLCSDLVKAYQRCVSAAHK [CHCHD6] | 2.64 ± 0.11 | 2.75 ± 0.61 | – | – |
| RPSSPRPQKASPNGSISSAGNSSR [BTBD10] | 4.97 ± 0.21 | 4.94 ± 0.3 | – | – |
| RPWRAGVLAEGDNASRSLYPDAED [PSD2] | 5.16 ± 0.2 | 5.05 ± 0.16 | – | – |
| RQKGTGKEYAAKFIKKRRLSSSRR [DAPK3] | 4.2 ± 0.24 | 4.5 ± 0.29 | – | – |
| RQKIWNNMPKDHPVSCCLGLLLES [DYNC2LI1] | 2.25 ± 0.23 | 2.34 ± 0.28 | – | – |
| RQPVSFHRVKLTNSTLDPHGHLIL [TBX6] | 2.27 ± 0.16 | 2.27 ± 0.34 | – | – |
| RQRSSLAKINIVYQELNYRSVEEA [SCNN1D] | 3.41 ± 0.24 | 3.44 ± 0.22 | – | – |
| RQVVQDLLKAGAEVNVLNDMRDTP [OSBPL1A] | 4.45 ± 0.21 | 4.24 ± 0.25 | – | – |
| RRENSTLDVECHEKEKHVNQLQTK [SASS6] | 5.13 ± 0.11 | 5.26 ± 0.23 | – | – |

| Sequence | protein stability index [1] | protein stability index [2] | protein stability index [3] | protein stability index [4] |
| --- | --- | --- | --- | --- |
| RRFQQTQYLALPERAELAASLGLT [DLX1] | 2.95 ± 0.21 | 3.12 ± 0.099 | – | – |
| RRITYLQNPKDCSKAKKLVCNINK [FUT8] | 2.77 ± 0.28 | 3.05 ± 0.26 | – | – |
| RRRIEEERLRLEQQKQQIMAALNS [ACBD3] | 4.05 ± 0.14 | 4.58 ± 0.2 | – | – |
| RRSISSSRSENVLSRLSLMAMPNG [PSD2] | 3.54 ± 0.17 | 3.56 ± 0.19 | – | – |
| RRSQQQQVPVVDFQAELRQAFLAE [SNURF] | 3.84 ± 0.37 | 3.86 ± 0.28 | – | – |
| RSGIQFGSWGSFQLPGLLNFGEFK [CLCN6] | 2.29 ± 0.26 | 2.4 ± 0.3 | – | – |
| RVKLEEDPDGEEGSSIPWNHLPDP [ZNF24] | 5.18 ± 0.2 | 5.19 ± 0.17 | – | – |
| RYPVCKFPSLQVTAILIECGADVN [FEM1C] | 2.71 ± 0.72 | 2.65 ± 0.61 | – | – |
| SAAWMKERTSPGAIHYCASTSEES [SPDEF] | 4.66 ± 0.13 | 4.72 ± 0.3 | – | – |
| SALASDRFNLILADTNSDRLFTVN [DCAF4] | 2.61 ± 0.18 | 2.69 ± 0.32 | – | – |
| SASDGSSFVVARYFPAGNVVNEGF [GLIPR2] | 2.58 ± 0.29 | 2.58 ± 0.35 | – | – |
| SCKADVVELLLSHADCDRRSRIEA [FEM1B] | 2.42 ± 0.17 | 2.65 ± 0.29 | – | – |
| SCSQGSGILHYAHGDSQQTHLLKQ [CRY1] | 3.29 ± 0.16 | 3.31 ± 0.2 | – | – |
| SDDFCTFQMVLEGGVCCTVTLNFN [GFOD1] | 2.79 ± 0.48 | 3.02 ± 0.29 | – | – |
| SDLGFEVKCFNDLKAEELLLKIHE [CASP6] | 2.48 ± 0.28 | 2.69 ± 0.37 | – | – |
| SDQETLRIHERLVAGSLAGAIAQS [SLC25A25] | 3.87 ± 0.18 | 3.8 ± 0.43 | – | – |
| SEKKTISFQGCMAQLFMDHLFAGA [OR4A15] | 2.56 ± 0.73 | 2.66 ± 0.79 | – | – |
| SELQKELKKVKTAHSNDGDCKTQ [DPCD] | – | – | 4.94 ± 0.27 | 5.28 ± 0.14 |
| SELTSLCQSVLEDFNLCLFYLPSS [SMG5] | 2.65 ± 0.64 | 2.42 ± 0.39 | – | – |
| SEQCYYIFGDLCGNMANLSLHDHD [DVL3] | 2.96 ± 0.19 | 2.91 ± 0.27 | – | – |
| SESGSLGNSSGSDVTSLSSQLPDT [ISL2] | 5.43 ± 0.056 | 5.41 ± 0.14 | – | – |
| SFRGAFSNSEKAKNIFRIRFHDPS [NET1] | 2.59 ± 0.34 | 2.65 ± 0.12 | – | – |
| SGAFQWEELEEDIRKKLKDSGDVS [RHOBTB3] | 5.17 ± 0.27 | 5.2 ± 0.34 | – | – |

| Sequence | protein stability index [1] | protein stability index [2] | protein stability index [3] | protein stability index [4] |
| --- | --- | --- | --- | --- |
| SGGGGSSSNFHINVEESVDGQVVS [KRT15] | 5.26 ± 0.1 | 5.21 ± 0.26 | – | – |
| SGGPPPKRSAPSGPVRSSSGMGGR [RBMX] | 4.59 ± 0.29 | 4.51 ± 0.21 | – | – |
| SGLGYIAGSKVKDMAGDWHWALRV [SPNS1] | 2.64 ± 0.74 | 2.38 ± 0.3 | – | – |
| SGSQMSHNAVTSHQRPGWPGQPHS [NCF4] | 3.95 ± 0.34 | 3.94 ± 0.29 | – | – |
| SGSSYCSFPPSLSSSSSSSPTSGS [LURAP1L] | 4.32 ± 0.13 | 4.42 ± 0.17 | – | – |
| SGTFAPISDRYSPELRQLVLSLLS [NEK8] | 2.12 ± 0.21 | 2.25 ± 0.38 | – | – |
| SHHHHQSRGACTSHDPQSSRGSRR [KCNA4] | 5.11 ± 0.26 | 5.13 ± 0.15 | – | – |
| SHLQAAAQTPPRPGPPSAPPPPPK [SCNN1D] | 5.09 ± 0.26 | 5.22 ± 0.14 | – | – |
| SIKGSSGLGGGSSRTSCRLSGGLG [KRT17] | 3.39 ± 0.19 | 3.42 ± 0.28 | – | – |
| SITVSKVDKDQPSILNSCEDPVPG [FBXO34] | 5.25 ± 0.22 | 5.25 ± 0.12 | – | – |
| SKPSSDLLDLQPDFSSGGAAAAAA [SNAP91] | 4.99 ± 0.37 | 5.027 ± 0.049 | – | – |
| SKSSHPLIRSLFHGFLFMIFQIGV [SOAT1] | 2.81 ± 0.84 | 2.72 ± 0.18 | – | – |
| SLDWETFEQYCAWQLFLAHNIPLE [INTS3] | 2.3 ± 0.43 | 2.16 ± 0.32 | – | – |
| SLFVLDQNDNAPEILYPALPTDGS [PCDHGA10] | 3.69 ± 0.33 | 3.84 ± 0.32 | – | – |
| SLHKHLTIRLNISDVNDNAPRFNQ [PCDHGC5] | 2.32 ± 0.34 | 2.28 ± 0.27 | – | – |
| SLIPLILDLMKEWIAHSEKLPRKV [SPACA9] | 2.28 ± 0.46 | 2.02 ± 0.36 | – | – |
| SLLDELLEVDHIRTIYHMFIALLI [SOAT1] | 2.01 ± 0.27 | 2.11 ± 0.56 | – | – |
| SLSEALDLIESDPDAWCDLSKFDL [MYBL2] | 3.61 ± 0.23 | 4.13 ± 0.56 | – | – |
| SLSFEDELVYADDYIMDEDQSKLA [ESRRG] | 5.43 ± 0.31 | 5.41 ± 0.27 | – | – |
| SLSHSPGCSSTQGNGRPGRPSQYR [LCOR] | 4.44 ± 0.13 | 4.67 ± 0.22 | – | – |
| SLSLFGCTNIFYEEENPGGCEDEY [ZER1] | 3.97 ± 0.14 | 4.06 ± 0.23 | – | – |
| SMPQKFLGDKGLSDTPYDSSASYE [IKZF1] | 4.74 ± 0.088 | 4.73 ± 0.34 | – | – |
| SNPELDVLLLGSVDGRHLLRTLSR [DNAAF3] | 2.5 ± 0.28 | 2.56 ± 0.32 | – | – |

| Sequence | protein stability index [1] | protein stability index [2] | protein stability index [3] | protein stability index [4] |
| --- | --- | --- | --- | --- |
| SNVKVETQSDEENGRACEMNGEEC [IKZF1] | 5.75 ± 0.27 | 5.25 ± 0.36 | – | – |
| SPESESDHEHEEADLELSLPECLE [GNAS] | 5.4 ± 0.38 | 5.57 ± 0.26 | – | – |
| SPIKKVRKSLALDIVDEDVKLMMS [MYBL2] | 3.6 ± 0.34 | 3.68 ± 0.43 | – | – |
| SPMSAATLGGLNPSPSEVITPWTP [SMTNL2] | 4.44 ± 0.18 | 4.46 ± 0.28 | – | – |
| SPPLHANTSLHVFVLDENDNAPAV [PCDHGC5] | 3.94 ± 0.23 | 3.81 ± 0.45 | – | – |
| SQLRLVCKRMDLVCQRMLNQGFLK [FBXO28] | 2.38 ± 0.42 | 2.46 ± 0.2 | – | – |
| SRGGPPPPPPPPHNSGPPPPPARG [WASL] | 5.13 ± 0.26 | 5.07 ± 0.07 | – | – |
| SRGSRRRRRQRSEKKKAHYRQSSF [KCNA4] | 4.6 ± 0.29 | 4.8 ± 0.17 | – | – |
| SRGSSVSMSGGRFRCPTCRHEVIM [TRIM63] | 2.43 ± 0.56 | 2.4 ± 0.38 | – | – |
| SRKIAVEDENDLEELNNGEPQTEH [MIA2] | 5.61 ± 0.13 | 5.37 ± 0.29 | – | – |
| SRRQEKSAGDADPENGEIKPASKP [ELOA2] | 5.53 ± 0.19 | 5.69 ± 0.1 | – | – |
| SRSAILIQHRRTHTDSKYEHAIAE [ZNF396] | 3.63 ± 0.15 | 3.72 ± 0.19 | – | – |
| SSADDASAWSNIQEAPLQDDSCLN [FAN1] | 5.26 ± 0.26 | 5.33 ± 0.27 | – | – |
| SSCENKRADLVFIIDSSRSVNTHD [MATN2] | 2.81 ± 0.22 | 2.92 ± 0.13 | – | – |
| SSIIHEIDSILGNKPYSKKDYRS [KCNAB2] | – | – | 3.02 ± 0.37 | 3.53 ± 0.28 |
| SSSKRYTMSRSLDGASVNENHEIY [EPB41L3] | 4.11 ± 0.63 | 4 ± 0.45 | – | – |
| SSSRGSSHCDSPSPQEDGQIMFDV [BNIP3L] | 4.81 ± 0.26 | 4.91 ± 0.18 | – | – |
| SSSRNSHLVQHQHPNSRKSSAGGA [ZNF8] | 4.71 ± 0.43 | 4.83 ± 0.23 | – | – |
| SSSSQIGNDSFQLQVTEDVNSSIK [CLCN6] | 5.14 ± 0.06 | 4.87 ± 0.18 | – | – |
| SSSSSGVLMVGPNFRVGKKIGCGN [CSNK1G1] | 3.58 ± 0.34 | 3.68 ± 0.11 | – | – |
